B1: LYN (protein, UniProt P07948 2-512, looked up)
Tyrosine-protein kinase Lyn: GCIKSKGKDSLSDDGVDLKTQPVRNTERTIYVRDPTSNKQQRPVPESQLLPGQRFQTKDPEEQGDIVVALYPYDGIHPDDLSFKKGEKMKVLEEHGEWWKAKSLLTKKEGFIPSNYVAKLNTLETEEWFFKDITRKDAERQLLAPGNSAGAFLIRESETLKGSFSLSVRDFDPVHGDVIKHYKIRSLDNGGYYISPRITFPCISDMIKHYQKQADGLCRRLEKACISPKPQKPWDKDAWEIPRESIKLVKRLGAGQFGEVWMGYYNNSTKVAVKTLKPGTMSVQAFLEEANLMKTLQHDKLVRLYAVVTREEPIYIITEYMAKGSLLDFLKSDEGGKVLLPKLIDFSAQIAEGMAYIERKNYIHRDLRAANVLVSESLMCKIADFGLARVIEDNEYTAREGAKFPIKWTAPEAINFGCFTIKSDVWSFGILLYEIVTYGKIPYPGRTNADVMTALSQGYRMPRVENCPDELYDIMKMCWKEKAEERPTFDYLQSVLDDFYTATEGQYQQQP
B2: WASL (protein, UniProt O00401 2-505, looked up)
Actin nucleation-promoting …: SSVQQQPPPPRRVTNVGSLLLTPQENESLFTFLGKKCVTMSSAVVQLYAADRNCMWSKKCSGVACLVKDNPQRSYFLRIFDIKDGKLLWEQELYNNFVYNSPRGYFHTFAGDTCQVALNFANEEEAKKFRKAVTDLLGRRQRKSEKRRDPPNGPNLPMATVDIKNPEITTNRFYGPQVNNISHTKEKKKGKAKKKRLTKADIGTPSNFQHIGHVGWDPNTGFDLNNLDPELKNLFDMCGISEAQLKDRETSKVIYDFIEKTGGVEAVKNELRRQAPPPPPPSRGGPPPPPPPPHNSGPPPPPARGRGAPPPPPSRAPTAAPPPPPPSRPSVAVPPPPPNRMYPPPPPALPSSAPSGPPPPPPSVLGVGPVAPPPPPPPPPPPGPPPPPGLPSDGDHQVPTTAGNKAALLDQIREGAQLKKVEQNSRPVSCSGRDALLDQIRQGIQLKSVADGQESTPPTPAPTSGIVGALMEVMQKRSKAIHSSDEDEDEDDEEDFEDDDEWED
B3: PTPN18 (protein, UniProt Q99952 1-460, looked up)
Tyrosine-protein phosphatase …: MSRSLDSARSFLERLEARGGREGAVLAGEFSDIQACSAAWKADGVCSTVAGSRPENVRKNRYKDVLPYDQTRVILSLLQEEGHSDYINGNFIRGVDGSLAYIATQGPLPHTLLDFWRLVWEFGVKVILMACREIENGRKRCERYWAQEQEPLQTGLFCITLIKEKWLNEDIMLRTLKVTFQKESRSVYQLQYMSWPDRGVPSSPDHMLAMVEEARRLQGSGPEPLCVHCSAGCGRTGVLCTVDYVRQLLLTQMIPPDFSLFDVVLKMRKQRPAAVQTEEQYRFLYHTVAQMFCSTLQNASPHYQNIKENCAPLYDDALFLRTPQALLAIPRPPGGVLRSISVPGSPGHAMADTYAVVQKRGAPAGAGSGTQTGTGTGTGARSAEEAPLYSKVTPRAQRPGAHAEDARGTLPGRVPADQSPAGSGAYEDVAGGAQTGGLGFNLRIGRPKGPRDPPAEWTRV
B4: SLA2 (protein, UniProt Q9H6Q3 2-261, looked up)
Src-like-adapter 2: GSLPSRRKSLPSPSLSSSVQGQGPVTMEAERSKATAVALGSFPAGGPAELSLRLGEPLTIVSEDGDWWTVLSEVSGREYNIPSVHVAKVSHGWLYEGLSREKAEELLLLPGNPGGAFLIRESQTRRGSYSLSVRLSRPASWDRIRHYRIHCLDNGWLYISPRLTFPSLQALVDHYSELADDICCLLKEPCVLQRAGPLPGKDIPLPVTVQRTPLNWKELDSSLLFSEAATGEESLLSEGLRESLSFYISLNDEAVSLDDA
B5: STAT1 (protein, UniProt P42224 2-750, looked up)
Signal transducer and …: SQWYELQQLDSKFLEQVHQLYDDSFPMEIRQYLAQWLEKQDWEHAANDVSFATIRFHDLLSQLDDQYSRFSLENNFLLQHNIRKSKRNLQDNFQEDPIQMSMIIYSCLKEERKILENAQRFNQAQSGNIQSTVMLDKQKELDSKVRNVKDKVMCIEHEIKSLEDLQDEYDFKCKTLQNREHETNGVAKSDQKQEQLLLKKMYLMLDNKRKEVVHKIIELLNVTELTQNALINDELVEWKRRQQSACIGGPPNACLDQLQNWFTIVAESLQQVRQQLKKLEELEQKYTYEHDPITKNKQVLWDRTFSLFQQLIQSSFVVERQPCMPTHPQRPLVLKTGVQFTVKLRLLVKLQELNYNLKVKVLFDKDVNERNTVKGFRKFNILGTHTKVMNMEESTNGSLAAEFRHLQLKEQKNAGTRTNEGPLIVTEELHSLSFETQLCQPGLVIDLETTSLPVVVISNVSQLPSGWASILWYNMLVAEPRNLSFFLTPPCARWAQLSEVLSWQFSSVTKRGLNVDQLNMLGEKLLGPNASPDGLIPWTRFCKENINDKNFPFWLWIESILELIKKHLLPLWNDGCIMGFISKERERALLKDQQPGTFLLRFSESSREGAITFTWVERSQNGGEPDFHAVEPYTKKELSAVTFPDIIRNYKVMAAENIPENPLKYLYPNIDKDHAFGKYYSRPKEAPEPMELDGPKGTGYIKTELISVSEVHPSRLQTTDNLLPMSPEEFDEVSRIVGSVEFDSMMNTV
B6: PTK2 (protein, UniProt Q05397 2-1052, looked up)
Focal adhesion kinase 1: AAAYLDPNLNHTPNSSTKTHLGTGMERSPGAMERVLKVFHYFESNSEPTTWASIIRHGDATDVRGIIQKIVDSHKVKHVACYGFRLSHLRSEEVHWLHVDMGVSSVREKYELAHPPEEWKYELRIRYLPKGFLNQFTEDKPTLNFFYQQVKSDYMLEIADQVDQEIALKLGCLEIRRSYWEMRGNALEKKSNYEVLEKDVGLKRFFPKSLLDSVKAKTLRKLIQQTFRQFANLNREESILKFFEILSPVYRFDKECFKCALGSSWIISVELAIGPEEGISYLTDKGCNPTHLADFTQVQTIQYSNSEDKDRKGMLQLKIAGAPEPLTVTAPSLTIAENMADLIDGYCRLVNGTSQSFIIRPQKEGERALPSIPKLANSEKQGMRTHAVSVSETDDYAEIIDEEDTYTMPSTRDYEIQRERIELGRCIGEGQFGDVHQGIYMSPENPALAVAIKTCKNCTSDSVREKFLQEALTMRQFDHPHIVKLIGVITENPVWIIMELCTLGELRSFLQVRKYSLDLASLILYAYQLSTALAYLESKRFVHRDIAARNVLVSSNDCVKLGDFGLSRYMEDSTYYKASKGKLPIKWMAPESINFRRFTSASDVWMFGVCMWEILMHGVKPFQGVKNNDVIGRIENGERLPMPPNCPPTLYSLMTKCWAYDPSRRPRFTELKAQLSTILEEEKAQQEERMRMESRRQATVSWDSGGSDEAPPKPSRPGYPSPRSSEGFYPSPQHMVQTNHYQVSGYPGSHGITAMAGSIYPGQASLLDQTDSWNHRPQEIAMWQPNVEDSTVLDLRGIGQVLPTHLMEERLIRQQQEMEEDQRWLEKEERFLKPDVRLSRGSIDREDGSLQGPIGNQHIYQPVGKPDPAAPPKKPPRPGAPGHLGSLASLSSPADSYNEGVKLQPQEISPPPTANLDRSNDKVYENVTGLVKAVIEMSSKIQPAPPEEYVPMVKEVGLALRTLLATVDETIPLLPASTHREIEMAQKLLNSDLGELINKMKLAQQYVMTSLQQEYKKQMLTAAHALAVDAKNLLDVIDQARLKMLGQTRPH
B7: TXN (protein, UniProt P10599 2-105, looked up)
Thioredoxin: VKQIESKTAFQEALDAAGDKLVVVDFSATWCGPCKMIKPFFHSLSEKYSNVIFLEVDVDDCQDVASECEVKCMPTFQFFKKGQKVGEFSGANKEKLEATINELV
B8: Pdgfra (protein, UniProt P26618 25-1089, looked up)
Platelet-derived growth …: LLLPSILPNENEKIVQLNSSFSLRCVGESEVSWQHPMSEEDDPNVEIRSEENNSGLFVTVLEVVNASAAHTGWYTCYYNHTQTDESEIEGRHIYIYVPDPDMAFVPLGMTDSLVIVEEDDSAIIPCRTTDPETQVTLHNNGRLVPASYDSRQGFNGTFSVGPYICEATVKGRTFKTSEFNVYALKATSELNLEMDARQTVYKAGETIVVTCAVFNNEVVDLQWTYPGEVRNKGITMLEEIKLPSIKLVYTLTVPKATVKDSGEYECAARQATKEVKEMKRVTISVHEKGFVEIEPTFGQLEAVNLHEVREFVVEVQAYPTPRISWLKDNLTLIENLTEITTDVQKSQETRYQSKLKLIRAKEEDSGHYTIIVQNEDDVKSYTFELSTLVPASILDLVDDHHGSGGGQTVRCTAEGTPLPEIDWMICKHIKKCNNDTSWTVLASNVSNIITELPRRGRSTVEGRVSFAKVEETIAVRCLAKNNLSVVARELKLVAPTLRSELTVAAAVLVLLVIVIVSLIVLVVIWKQKPRYEIRWRVIESISPDGHEYIYVDPMQLPYDSRWEFPRDGLVLGRILGSGAFGKVVEGTAYGLSRSQPVMKVAVKMLKPTARSSEKQALMSELKIMTHLGPHLNIVNLLGACTKSGPIYIITEYCFYGDLVNYLHKNRDSFMSQHPEKPKKDLDIFGLNPADESTRSYVILSFENNGDYMDMKQADTTQYVPMLERKEVSKYSDIQRSLYDRPASYKKKSMLDSEVKNLLSDDDSEGLTLLDLLSFTYQVARGMEFLASKNCVHRDLAARNVLLAQGKIVKICDFGLARDIMHDSNYVSKGSTFLPVKWMAPESIFDNLYTTLSDVWSYGILLWEIFSLGGTPYPGMMVDSTFYNKIKSGYRMAKPDHATSEVYEIMVQCWNSEPEKRPSFYHLSEIVENLLPGQYKKSYEKIHLDFLKSDHPAVARMRVDSDNAYIGVTYKNEEDKLKDWEGGLDEQRLSADSGYIIPLPDIDPVPEEEDLGKRNRHSSQTSEESAIETGSSSSTFIKREDETIEDIDMMDDIGIDSSDLVEDSFL

target: T1, EGFR-Wt (Homo sapiens, UniProt P00533); assay: MaMTH EGFR-interactor screen, lentiviral preys against EGFR-wildtype bait (interaction score); type: cell-based; conditions: MaMTH interaction score of prey with EGFR-Wt bait, mean
T1 construct: with the advantage of testing full-length integral membrane proteins; (GGGGS)2 linker-Cub (human ubiquitin aa 35-76)-GAL4(1-147)-mNFkB(364-550) (C); expressed in transfected cells
Outline: (§1)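 Interaction score is the luciferase fold-change versus averaged negative controls (Fabp5, Pex19, Pex7, GABBR2), with >1 called interacting. Luciferase was measured 24 h after triplicate bait transfection. This followed single-copy prey transduction (MOI ~0.3-0.4) of GAL4UAS-luciferase HEK293T cells and ≥48 h puromycin selection.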

Row | EGFR-Wt mean | Molecule
1 | 6.92 | B1
2 | 1.41 | B2
3 | 1.54 | B3
4 | 2.22 | B4
5 | 4.70 | B5
6 | 4.05 | B6
7 | 5.10 | B7
8 | 9.18 | B8

tested on: EGFR-Wt; assay: as above; type: cell-based, human; conditions: ratio of EGFR-Wt mean to EGFR-L858R mean interaction score
Outline: as §1

Row | Molecule | Wt/L858R
9 | B1 | 0.71
10 | B2 | 0.73
11 | B3 | 0.71
12 | B4 | 0.71
13 | B5 | 0.69
14 | B6 | 0.72
15 | B7 | 0.73
16 | B8 | 0.67

target: T2, EGFR-L858R (Homo sapiens, UniProt P00533, L858R); assay: MaMTH EGFR-interactor screen, lentiviral preys against EGFR-L858R bait (interaction score); type: cell-based; conditions: MaMTH interaction score of prey with EGFR-L858R bait
T2 construct: with the advantage of testing full-length integral membrane proteins; (GGGGS)2 linker-Cub (human ubiquitin aa 35-76)-GAL4(1-147)-mNFkB(364-550) (C); expressed in transfected cells
Outline: as §1

Row | EGFR-L858R mean | Molecule
17 | 9.74 | B1
18 | 1.93 | B2
19 | 2.18 | B3
20 | 3.11 | B4
21 | 6.80 | B5
22 | 5.59 | B6
23 | 7.03 | B7
24 | 13.73 | B8

From patent publication US9958461B2, “Detection of protein to protein interactions” (THE GOVERNING COUNCIL OF THE UNIVERSITY OF TORONTO, priority 2013, dated 2018)
